Publication PMC9959518, “Influence of the Drug Position on Bioactivity in Angiopep-2—Daunomycin Conjugates” (International Journal of Molecular Sciences, 2023)

What was measured:
[1] = system: U87 human glioblastoma cells; type: cell-based; conditions: MTT test, 0.05–50 µM, treated 24 h (method: overnight), washed, further 48 h (method: 72 h) at 37 °C, two independent experiments with four parallel measurements
Method: The in vitro cytostatic effect of the synthesized peptide (1) and daunomycin-peptide conjugates (2–8) was investigated on U87 human glioblastoma cells. The cells were treated with the peptide and conjugates at different concentrations (0.05–50 μM) for 24 h, and after a washing step, the cells were incubated for another […] at 37 °C. The cytostatic effect of the compounds was determined using the MTT test.
U87 human glioblastoma cell line was cultured in DMEM supplemented with 10% FBS, 2 mM L-glutamine, penicillin–streptomycin antibiotic mixture (50 IU/mL and 50 μg/mL, respectively), 1 mM sodium pyruvate, and 1% non-essential amino acid mixture. The cell culture was maintained at 37 °C in a humidified atmosphere with 5% CO2. The U87 cell line was a generous gift of Dr. József Tóvári (Department of Experimental Pharmacology, National Institute of Oncology, Budapest, Hungary).
For determining the cytostatic effect of the conjugates, U87 cells were grown to confluency and then divided into 96-well tissue culture plates with an initial cell number of 5.0 × 10^3 cells/well. After 24 h incubation at 37 °C, the cells were treated with the compounds overnight in the concentration range of 0.05–50 μM in 200 μL final volume containing 1.0 v/v% DMSO, whereas control cells were treated only with serum-free medium or with 1.0 v/v% DMSO at the same conditions. After the incubation, cells were washed twice with serum-free medium, then the cells were cultured for an additional 72 h in 10% serum-containing medium at 37 °C. Following that, MTT solution (at c = 0.37 mg/mL final concentration) was added to each well. The respiratory chain [32] and other electron transport systems reduced MTT and thereby formed non-water-soluble violet formazan crystals within the cells. The amount of these crystals can be determined by spectrophotometry and serves as an estimate for the number of mitochondria in addition to the number of living cells in the well [35]. After 3 h of incubation with MTT, the cells were centrifuged for 5 min at 2000 rpm and the supernatant was removed. The obtained formazan crystals were dissolved in DMSO (100 µL), and the optical density (OD) of the samples was measured at λ = 540 nm and 620 nm, respectively, using ELISA Reader (iEMS Reader, Labsystems, Finland). The OD620 values were subtracted from the OD540 values. The percent of cytostasis was calculated with the following equation:(1) Cytostatic effect (%)=1−ODtreated/ODcontrol×100 where the ODtreated and ODcontrol values correspond to the optical densities of the treated and the control wells, respectively. In each case, two independent experiments were carried out with four parallel measurements. Cytostasis was plotted as a function of concentration, and the half-maximal inhibitory concentration was calculated based on a sigmoid curve fitted on the data points using Microcal™ Origin 2018 software. IC50 represents the concentration of a compound that is required for 50% inhibition, expressed in micromolar units.

[2] = system: U87 human glioblastoma cells; experiment: In vitro cellular uptake by flow cytometry; type: cell-based; conditions: 50 µM
Method: The in vitro cytostatic effect of any peptide–drug conjugate is influenced by many factors. One of the main effects is the cellular uptake of the conjugates by cells. Therefore, we compared the cellular uptake of the different conjugates on U87 glioblastoma cells. The cells were incubated with the conjugates (2, 10, and 50 µM) for 1 h. Then, after a washing step, the cells were treated with trypsin to remove the cell surface-bound conjugates and other cell surface structures that enable non-specific binding, so only the quantity of the conjugates actually entering the cells was detected by flow cytometry. […] The cellular uptake of the conjugates was concentration-dependent. […]
U87 cells were plated into 24-well tissue culturing plates with the initial cell number of 10^5 cells/well 24 h before the experiment. […] Data were recorded for 5000–10,000 cells at λex = 488 nm. The fluorescence mean was calculated. Daunomycin-positive cells were also gated from the living cell population, and the percentage of daunomycin-containing cells was calculated. The gating was determined from the untreated control cell count/fluorescence intensity histogram by adjusting the lowest fluorescence intensity value of the gated cells to the highest fluorescence intensity value of the live population of untreated control cells. Cells showing fluorescence intensities above this were considered as Dau-positive. […]

[3] = Degradation in rat liver lysosomal homogenate followed by HPLC-MS; type: in vitro ADME
Method: The conjugates were treated with lysosomal homogenate for 5 min, 1 h, 6 h, 24 h, and 72 h, and the degradation was followed by HPLC-MS. Control studies investigating conjugates in buffer (without lysosomal homogenate) were also performed, and for these, all conjugates were stable. […] At 6 h, it was the main drug-containing metabolite, and at 72 h, only this Dau-containing fragment could be detected. This time-dependent pattern was also observed in the case of conjugate 2, where Dau was attached to the side chain of Lys in position 15, and the formed smallest metabolite was H-Lys(Dau=Aoa)-OH. […] It is likely that, in this case, a large steric hindrance occurred, and the enzymes were not able to access the peptide bonds around ^10Lys. This observation might explain the discrepancy between the efficient cellular uptake and the lower anticancer activity of this conjugate.
A stock solution with a concentration of 2.5 μg/μL was prepared from the conjugates in distilled water, and this was diluted 100× with 0.2 M sodium acetate buffer (pH 5.03). The rat liver lysosomal homogenate (16.6 μg/μL) was diluted 20× with the same buffer, and then the two solutions were mixed in a 1:1 (protein:peptide, m/m) ratio. In each case, control measurements were also performed, in which buffer was added to the conjugates instead of the lysosomal homogenate. The solutions were stirred at 600 rpm at 37 °C in a thermostat (ThermoMixer, Eppendorf AG, Hamburg, Germany), and after 5 min, 1 h, 6 h, 24 h, and 72 h, 50 μL samples were taken. Each reaction was quenched with 5 μL formic acid and the samples were stored frozen until analysis.
The HPLC-MS analysis of the samples was performed with a Dionex 3000 HPLC-Q Exactive Focus hybrid quadrupole-orbitrap mass spectrometer (Thermo Fisher Scientific, Bremen, Germany). For separation, a Supelco Ascentis C18 column (3 μm, 100 Å, 150 × 2.1 mm; Merck, Darmstadt, Germany) and gradient elution (0 min 2% B, 1 min 2% B, 17 min 90% B; A eluent: 0.1% formic acid/distilled water, eluent B: 0.1% formic acid/acetonitrile + distilled water (80:20, v/v%), flow rate 0.2 mL/min, 40 °C) was used, and high-resolution mass spectra were recorded in the range of 200–1800 m/z. The data were analyzed using the Xcalibur program (Thermo Fisher Scientific).

For `COc1cccc2c1C(=O)c1c(O)c3c(c(O)c1C2=O)C[C@@](O)(C(C)=NOCC(=O)NCC(=O)N[C@@H](Cc1ccccc1)C(=O)N[C@@H](CC(C)C)C(=O)NCC(=O)NCCCC[C@H](NC(=O)CNC(=O)[C@H](CCCNC(=N)N)NC(=O)[C@H](CO)NC(=O)CNC(=O)CNC(=O)[C@H](Cc1ccc(O)cc1)NC(=O)[C@H](Cc1ccccc1)NC(=O)[C@H](Cc1ccccc1)NC(=O)[C@@H](N)[C@@H](C)O)C(=O)N[C@@H](CCCNC(=N)N)C(=O)N[C@@H](CC(N)=O)C(=O)N[C@@H](CC(N)=O)C(=O)N[C@@H](Cc1ccccc1)C(=O)N[C@@H](CCCCN)C(=O)N[C@H](C(=O)N[C@@H](CCC(=O)O)C(=O)N[C@@H](CCC(=O)O)C(=O)N[C@@H](Cc1ccc(O)cc1)C(=O)O)[C@@H](C)O)C[C@@H]3O[C@H]1C[C@H](N)[C@H](O)[C@H](C)O1` [compound 9, H-TFFYGGSRGK(Dau=Aoa-GFLG)RNNFKTEEY-OH], which IC50 [1] is on record?
The IC50 was 16.9 ± 5.6 µM.

And the “toxicity observed during the cellular uptake measurement (live cells in % of untreated control)” value [2]?
The value was “slight toxicity”.

What about the “release of Dau=Aoa-Gly-OH (in words)” value ([3]; pH 5.03, 37 °C) of the same compound?
Its value is “particularly slow”.

With `COc1cccc2c1C(=O)c1c(O)c3c(c(O)c1C2=O)C[C@@](O)(C(C)=NOCC(=O)NCCCC[C@H](NC(=O)CNC(=O)[C@H](CCCNC(=N)N)NC(=O)[C@H](CO)NC(=O)CNC(=O)CNC(=O)[C@H](Cc1ccc(O)cc1)NC(=O)[C@H](Cc1ccccc1)NC(=O)[C@H](Cc1ccccc1)NC(=O)[C@@H](NC(=O)CON=C(C)[C@]1(O)Cc2c(O)c4c(c(O)c2[C@@H](O[C@H]2C[C@H](N)[C@H](O)[C@H](C)O2)C1)C(=O)c1c(OC)cccc1C4=O)[C@@H](C)O)C(=O)N[C@@H](CCCNC(=N)N)C(=O)N[C@@H](CC(N)=O)C(=O)N[C@@H](CC(N)=O)C(=O)N[C@@H](Cc1ccccc1)C(=O)N[C@@H](CCCCN)C(=O)N[C@H](C(=O)N[C@@H](CCC(=O)O)C(=O)N[C@@H](CCC(=O)O)C(=O)N[C@@H](Cc1ccc(O)cc1)C(=O)O)[C@@H](C)O)C[C@@H]3O[C@H]1C[C@H](N)[C@H](O)[C@H](C)O1` [compound 7, Dau=Aoa-TFFYGGSRGK(Dau=Aoa)RNNFKTEEY-OH] as the compound, how does the IC50 [1] read?
The IC50 was 7.8 ± 6.3 µM.

What about the “toxicity observed during the cellular uptake measurement (live cells in % of untreated control)” value [2] of the same compound?
The value was “slight toxicity”.

Which IC50 [1] does the source give for `COc1cccc2c1C(=O)c1c(O)c3c(c(O)c1C2=O)C[C@@](O)(C(C)=NOCC(=O)NCCCC[C@H](NC(=O)CNC(=O)[C@H](CCCNC(=N)N)NC(=O)[C@H](CO)NC(=O)CNC(=O)CNC(=O)[C@H](Cc1ccc(O)cc1)NC(=O)[C@H](Cc1ccccc1)NC(=O)[C@H](Cc1ccccc1)NC(=O)[C@@H](N)[C@@H](C)O)C(=O)N[C@@H](CCCNC(=N)N)C(=O)N[C@@H](CC(N)=O)C(=O)N[C@@H](CC(N)=O)C(=O)N[C@@H](Cc1ccccc1)C(=O)N[C@@H](CCCCN)C(=O)N[C@H](C(=O)N[C@@H](CCC(=O)O)C(=O)N[C@@H](CCC(=O)O)C(=O)N[C@@H](Cc1ccc(O)cc1)C(=O)O)[C@@H](C)O)C[C@@H]3O[C@H]1C[C@H](N)[C@H](O)[C@H](C)O1` [compound 4, H-TFFYGGSRGK(Dau=Aoa)RNNFKTEEY-OH] here?
Its IC50 is 24 ± 5.9 µM.

And the “smallest metabolite H-Lys(Dau=Aoa)-OH at 1 h” value ([3]; 1:1 protein:peptide m/m, 0.2 M sodium acetate pH 5.03, 37 °C, 1 h)?
The value was “not detectable”.

And the “release of the smallest metabolite H-Lys(Dau=Aoa)-OH (in words)” value ([3]; pH 5.03, 37 °C, up to 72 h)?
The value was “not efficiently released”.

With `COc1cccc2c1C(=O)c1c(O)c3c(c(O)c1C2=O)C[C@@](O)(C(C)=NOCC(=O)N[C@H](C(=O)N[C@@H](C)C(=O)NCCCC[C@H](NC(=O)CNC(=O)[C@H](CCCNC(=N)N)NC(=O)[C@H](CO)NC(=O)CNC(=O)CNC(=O)[C@H](Cc1ccc(O)cc1)NC(=O)[C@H](Cc1ccccc1)NC(=O)[C@H](Cc1ccccc1)NC(=O)[C@@H](N)[C@@H](C)O)C(=O)N[C@@H](CCCNC(=N)N)C(=O)N[C@@H](CC(N)=O)C(=O)N[C@@H](CC(N)=O)C(=O)N[C@@H](Cc1ccccc1)C(=O)N[C@@H](CCCCN)C(=O)N[C@H](C(=O)N[C@@H](CCC(=O)O)C(=O)N[C@@H](CCC(=O)O)C(=O)N[C@@H](Cc1ccc(O)cc1)C(=O)O)[C@@H](C)O)C(C)C)C[C@@H]3O[C@H]1C[C@H](N)[C@H](O)[C@H](C)O1` [compound 10, H-TFFYGGSRGK(Dau=Aoa-VA)RNNFKTEEY-OH] as the compound, how does the IC50 [1] read?
The IC50 was greater than 50 µM.

What about the “amount of H-K(Dau=Aoa-VA)-OH formed” value ([3]; pH 5.03, 37 °C) of the same compound?
The value was “very small amounts”.

And the “amount of expected metabolite Dau=Aoa-Val-OH produced after 72 h” value ([3]; pH 5.03, 37 °C, 72 h)?
The value was “negligible amounts”.
